# According to article PMC12245079, “FUS Selectively Facilitates circRNAs Packing into Small Extracellular Vesicles within Hypoxia Neuron”:
# Key:
# Assay in all cases: EMSA; 100 nM probe; 10 mM Tris-HCl pH 8.0, 10 mM NaCl, 25 mM KCl, 1 mM MgCl2, 1 mM DTT, 1 mg/mL tRNA; room temperature 30 min; 4% native acrylamide gel, 1x TBE
# FUS polypeptide-2 = FUS polypeptide-2 (UniProt P35637 50-400); details: protein: commercial; tags: GST fusion (pGEX-4T-1) described; label: Cy3 (3')
# FUS polypeptide-4 = FUS polypeptide-4 (UniProt P35637 280-375); details: protein: recombinant; tags: GST fusion (pGEX-4T-1), TEV cleavage described; label: Cy3 (3')
# FUS polypeptide-4, sequence (P35637 280-375): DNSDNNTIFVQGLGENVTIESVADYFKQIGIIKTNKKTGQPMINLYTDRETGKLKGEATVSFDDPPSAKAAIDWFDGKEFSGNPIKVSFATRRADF
# FUS polypeptide-1 = FUS polypeptide-1 (UniProt P35637 1-526); details: protein: recombinant; tags: GST fusion (pGEX-4T-1), TEV cleavage described; label: Cy3 (3')
# FUS polypeptide-1, sequence (P35637 whole entry, the tested form may be a part): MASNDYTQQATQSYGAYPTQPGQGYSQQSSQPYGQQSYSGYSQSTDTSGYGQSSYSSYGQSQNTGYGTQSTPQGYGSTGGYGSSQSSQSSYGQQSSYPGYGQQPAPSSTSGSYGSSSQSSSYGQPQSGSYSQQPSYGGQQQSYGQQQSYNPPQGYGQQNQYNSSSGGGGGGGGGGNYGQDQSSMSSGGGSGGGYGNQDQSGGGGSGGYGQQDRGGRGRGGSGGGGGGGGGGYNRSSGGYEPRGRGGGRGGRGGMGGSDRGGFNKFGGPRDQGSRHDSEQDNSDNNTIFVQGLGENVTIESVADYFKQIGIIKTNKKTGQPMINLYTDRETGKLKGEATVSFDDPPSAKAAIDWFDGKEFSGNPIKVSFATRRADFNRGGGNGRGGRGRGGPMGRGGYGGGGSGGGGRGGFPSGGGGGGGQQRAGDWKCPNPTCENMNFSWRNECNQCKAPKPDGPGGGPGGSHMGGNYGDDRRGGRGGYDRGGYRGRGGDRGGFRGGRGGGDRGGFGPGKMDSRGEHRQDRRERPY
# FUS polypeptide-3 = FUS polypeptide-3 (UniProt P35637 1-380); details: protein: recombinant; tags: GST fusion (pGEX-4T-1), TEV cleavage described; label: Cy3 (3')
# FUS polypeptide-3, sequence (P35637 1-380): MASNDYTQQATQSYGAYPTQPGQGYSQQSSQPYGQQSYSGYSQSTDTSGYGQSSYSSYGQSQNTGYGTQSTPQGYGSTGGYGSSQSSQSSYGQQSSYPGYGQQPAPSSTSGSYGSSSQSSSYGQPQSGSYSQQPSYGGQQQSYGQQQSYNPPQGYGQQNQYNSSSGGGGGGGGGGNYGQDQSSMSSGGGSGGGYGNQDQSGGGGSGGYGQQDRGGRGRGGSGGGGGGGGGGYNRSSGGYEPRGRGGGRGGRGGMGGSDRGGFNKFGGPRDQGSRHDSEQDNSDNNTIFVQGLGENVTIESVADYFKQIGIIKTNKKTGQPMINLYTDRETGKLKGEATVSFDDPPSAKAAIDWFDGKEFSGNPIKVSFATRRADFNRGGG
# FUS polypeptide-2, sequence (P35637 50-400): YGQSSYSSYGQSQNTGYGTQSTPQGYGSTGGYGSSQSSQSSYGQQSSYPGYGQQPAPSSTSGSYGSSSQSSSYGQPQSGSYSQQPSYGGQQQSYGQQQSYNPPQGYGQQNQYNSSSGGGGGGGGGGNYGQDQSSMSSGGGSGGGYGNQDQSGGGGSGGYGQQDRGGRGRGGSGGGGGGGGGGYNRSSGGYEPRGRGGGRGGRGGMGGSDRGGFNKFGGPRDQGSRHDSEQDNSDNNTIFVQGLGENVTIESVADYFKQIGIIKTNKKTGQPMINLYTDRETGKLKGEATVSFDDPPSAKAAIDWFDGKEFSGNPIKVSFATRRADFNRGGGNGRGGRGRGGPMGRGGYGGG
binder,measurement,setting,value
UUGUAUUUUGAGCUAGUUUGGUGAC (ssRNA) [GGUG oligo],binding result,FUS polypeptide-2,binds
same,binding result,FUS polypeptide-4,no binding
same,binding result,FUS polypeptide-1,binds
same,binding result,FUS polypeptide-3,binds
